Results on 1 molecule are retold here after PMC9243169.

One assay concerns the target T1, LANTVATL peptide.
T1 chain: LANTVATL
Kind of assay: size-exclusion chromatography of in vitro assembled heavy chain/β2m/ligand complex. The note with it: chain shown with the change; parent: est. 160; read off a plot. (SEC sorts molecules by how far they enter the pores of the column.)

The target in assay [1] is T2, N-myristoylated 4-mer lipopeptide Myr-GAAL.
T2 chain: GAAL
The description is as above. The settings on record: chain shown with the change; parent: est. 160; read off a plot.

B1: HLA-C∗14:02 heavy chain, ectodomain (soluble form) S9Y (protein)
chain: AGSHSMRYFYTSVSRPGRGEPRFIAVGYVDDTQFVRFDSDAASPRGEPRAPWVEQEGPEYWDRETQKYKRQAQTDRVSLRNLRGYYNQSEAGSHTLQWMFGCDLGPDGRLLRGYDQSAYDGKDYIALNEDLRSWTAADTAAQITQRKWEAAREAEQRRAYLEGTCVEWLRRYLENGKETLQRAEHPKTHVTHHPVSDHEATLRCWALGFYPAEITLTWQWDGEDQTQDTELVETRPAGDGTFQKWAAVVVPSGEEQRYTCHVQHEGLPEPLTLRWEP
As to B1, the figures for the response (with LANTVATL peptide; in assay [1]) were 180 mAU and 30 mAU, respectively.
